Blank lines part the entries; values can stand above or below the binder they belong to.
How the values were obtained:
Clb5-TAP-Cdk1 complex = Clb5-TAP-Cdk1 complex (budding yeast | budding yeast …, UniProt P30283 1-435; P00546 1-298); experiment: pull-down
3HA-Cln2-Cdk1 complex = 3HA-Cln2-Cdk1 complex (budding yeast | budding yeast …, UniProt P20438 1-545; P00546 1-298)
Sequence of 3HA-Cln2-Cdk1 complex (P20438 whole entry, chain 1 of 2): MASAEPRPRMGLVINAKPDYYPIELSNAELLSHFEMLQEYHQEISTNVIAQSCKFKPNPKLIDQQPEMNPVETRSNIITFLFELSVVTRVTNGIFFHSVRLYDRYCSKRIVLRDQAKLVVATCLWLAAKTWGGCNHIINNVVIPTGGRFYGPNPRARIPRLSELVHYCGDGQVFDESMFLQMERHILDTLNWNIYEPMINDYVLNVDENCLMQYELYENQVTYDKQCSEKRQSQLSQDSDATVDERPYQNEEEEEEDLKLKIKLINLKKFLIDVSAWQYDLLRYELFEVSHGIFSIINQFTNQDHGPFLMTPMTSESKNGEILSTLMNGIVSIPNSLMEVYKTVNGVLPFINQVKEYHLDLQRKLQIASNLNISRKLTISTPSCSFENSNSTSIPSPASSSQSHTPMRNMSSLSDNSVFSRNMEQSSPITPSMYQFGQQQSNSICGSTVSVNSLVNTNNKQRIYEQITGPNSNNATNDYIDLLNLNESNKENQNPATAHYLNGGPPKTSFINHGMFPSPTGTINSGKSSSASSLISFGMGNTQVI
Sequence of 3HA-Cln2-Cdk1 complex (P00546 whole entry, chain 2 of 2): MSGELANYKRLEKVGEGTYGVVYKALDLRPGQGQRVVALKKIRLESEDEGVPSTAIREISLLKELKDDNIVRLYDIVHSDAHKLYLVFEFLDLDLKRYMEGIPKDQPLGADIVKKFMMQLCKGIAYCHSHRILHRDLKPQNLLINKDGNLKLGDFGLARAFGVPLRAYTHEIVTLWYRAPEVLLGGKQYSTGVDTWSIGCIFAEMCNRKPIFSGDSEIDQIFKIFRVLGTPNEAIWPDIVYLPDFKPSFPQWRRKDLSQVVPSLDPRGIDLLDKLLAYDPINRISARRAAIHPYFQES

Sequence of Clb5-TAP-Cdk1 complex (P30283 whole entry, chain 1 of 2): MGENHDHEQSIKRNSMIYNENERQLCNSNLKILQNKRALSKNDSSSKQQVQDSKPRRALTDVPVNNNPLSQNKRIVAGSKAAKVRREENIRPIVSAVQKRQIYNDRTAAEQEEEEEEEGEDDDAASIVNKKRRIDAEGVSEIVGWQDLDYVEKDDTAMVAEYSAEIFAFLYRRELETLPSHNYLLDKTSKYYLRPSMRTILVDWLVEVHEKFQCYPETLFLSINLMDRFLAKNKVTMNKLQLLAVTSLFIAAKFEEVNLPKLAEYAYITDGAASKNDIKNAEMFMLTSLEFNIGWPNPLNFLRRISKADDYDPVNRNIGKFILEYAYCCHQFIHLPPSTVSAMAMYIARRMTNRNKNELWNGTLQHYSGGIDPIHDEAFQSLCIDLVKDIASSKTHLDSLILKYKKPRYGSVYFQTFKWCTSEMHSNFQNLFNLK
Sequence of Clb5-TAP-Cdk1 complex (P00546 whole entry, chain 2 of 2): as the sequence (P00546 whole entry, chain 2 of 2) above

binding result (Clb5-TAP-Cdk1 complex): binds
B1: full-length Sic1 (natural protein, budding yeast, UniProt P38634 1-284, looked up)
chain: MTPSTPPRSRGTRYLAQPSGNTSSSALMQGQKTPQKPSQNLVPVTPSTTKSFKNAPLLAPPNSNMGMTSPFNGLTSPQRSPFPKSSVKRTLFQFESHDNGTVREEQEPLGRVNRILFPTQQNVDIDAAEEEEEGEVLLPPSRPTSARQLHLSLERDEFDQTHRKKIIKDVPGTPSDKVITFELAKNWNNNSPKNDARSQESEDEEDIIINPVRVGKNPFASDELVTQEIRNERKRAMLRENPDIEDVITYVNKKGEVVEKRRLTDEEKRRFKPKALFQSRDQEH

stoichiometry N (3HA-Cln2-Cdk1 complex): ~1 Cks1:Cdk1
B2: Cks1 (endogenous, in yeast) (natural protein, UniProt P20486 1-150, looked up)
chain: MYHHYHAFQGRKLTDQERARVLEFQDSIHYSPRYSDDNYEYRHVMLPKAMLKVIPSDYFNSEVGTLRILTEDEWRGLGITQSLGWEHYECHAPEPHILLFKRPLNYEAELRAATAAAQQQQQQQQQQQQQQQQHQTQSISNDMQVPPQIS
